Measurements from publication doi:10.1101/2022.01.11.475809, “HP1β Chromo Shadow Domain facilitates H2A ubiquitination for BRCA1 recruitment at DNA double-strand breaks” (bioRxiv, 2022).

Biological target: T1, FL-RING1A (1–406aa), recombinant (human, UniProt Q06587 1-406)
T1 construct: Human RING1A, full length, residues 1-406; Subcloned into the bacterial expression 1GFP vector (Addgene #29663, the vector's id); purification as in Hambarde et al., 2021 with other buffers; also called RING1A-FL; Human FL-RING1A; source: bacterial expression vector, purified (HisTrap, TEV cleavage, Superdex 75)
T1 sequence (looked up): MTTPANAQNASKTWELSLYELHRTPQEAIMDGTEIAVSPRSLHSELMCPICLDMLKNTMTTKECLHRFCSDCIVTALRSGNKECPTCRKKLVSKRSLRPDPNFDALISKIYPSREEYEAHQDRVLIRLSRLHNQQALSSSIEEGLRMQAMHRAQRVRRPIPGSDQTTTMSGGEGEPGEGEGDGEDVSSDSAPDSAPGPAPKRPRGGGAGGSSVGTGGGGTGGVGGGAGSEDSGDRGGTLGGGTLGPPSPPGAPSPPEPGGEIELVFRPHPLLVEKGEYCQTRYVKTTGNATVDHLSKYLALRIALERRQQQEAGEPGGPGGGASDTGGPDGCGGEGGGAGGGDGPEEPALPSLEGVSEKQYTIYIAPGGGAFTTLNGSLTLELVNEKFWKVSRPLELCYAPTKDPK
Assay: pull-down; FL-RING1A incubated with His6-CSD HP1β at molar ratio 1:2 in buffer H (20 mM Tris pH 8, 70 mM NaCl, 5% glycerol, 5 mM BME, 100 µM ZnCl2) on ice for 20 min; Ni-NTA resin, elution with 300 mM imidazole; SDS-PAGE and western blot
Conditions: both partners purified

binding result: binds
B1: His6-CSD HP1β (80–185aa), recombinant (domain or fragment)
chain: not shown
notes: HP1β residues 80-185 (hinge part and chromo shadow domain); 'Human' is printed before the two constructs of the sentence; Subcloned into the bacterial expression 1B vector (Addgene #29653, the vector's id); source: bacterial expression vector, purified (HisTrap, Superdex 75)
